From patent publication US20220306759A1 (CYTOMX THERAPEUTICS, published 2022)

Assays:
[1] = biological target: T1, recombinant human CD71 protein (human, UniProt P02786 89-760); test: ELISA, 1 µg/mL CD71, uncleaved
T1 construct: also called recombinant CD71
Procedure: (§1) The amount of bound antibody was detected by incubation and detection by goat anti-human antibody conjugated to horseradish peroxidase and Ultra TMB (Thermo Fisher Scientific) detection.

[2] = biological target: T1, recombinant human CD71 protein; test: ELISA; Kd against CD71 21.12
Procedure: as §1

[3] = biological target: T2, human CD71 (transferrin receptor protein 1, TfR1) on human cell lines (human, UniProt P02786 1-760); test: FACS on HCC1806 cells
T2 construct: whole, on cells; also called huCD71
Procedure: (§2) In this study, the binding of the antibodies of the present disclosure to the indicated cell lines were performed using a standard FACS labelling method.

[4] = biological target: T2, human CD71 (transferrin receptor …); test: FACS on H292 cells, uncleaved
Procedure: In this study, the binding of the antibodies of the present disclosure to the indicated cell lines were performed using a standard FACS labelling method. […] These activatable antibodies include the light chain of the correspondingly named sequence listed above in Table C. The cells were labeled with the indicated test article at the indicated concentrations and subsequently detected with an Alexa Fluor 647 labeled goat anti-human IgG secondary antibody.

[5] = biological target: T1, recombinant human CD71 protein; test: ELISA, 1 µg/mL recombinant human CD71, uncleaved
Procedure: as §1

[6] = biological target: T2, human CD71 (transferrin receptor …); test: FACS on MDA MB 231 cells
Procedure: as §2

[7] = biological target: T2, human CD71 (transferrin receptor …); test: FACS on H292 cells
Procedure: as §2

T2 sequence (P02786 whole entry): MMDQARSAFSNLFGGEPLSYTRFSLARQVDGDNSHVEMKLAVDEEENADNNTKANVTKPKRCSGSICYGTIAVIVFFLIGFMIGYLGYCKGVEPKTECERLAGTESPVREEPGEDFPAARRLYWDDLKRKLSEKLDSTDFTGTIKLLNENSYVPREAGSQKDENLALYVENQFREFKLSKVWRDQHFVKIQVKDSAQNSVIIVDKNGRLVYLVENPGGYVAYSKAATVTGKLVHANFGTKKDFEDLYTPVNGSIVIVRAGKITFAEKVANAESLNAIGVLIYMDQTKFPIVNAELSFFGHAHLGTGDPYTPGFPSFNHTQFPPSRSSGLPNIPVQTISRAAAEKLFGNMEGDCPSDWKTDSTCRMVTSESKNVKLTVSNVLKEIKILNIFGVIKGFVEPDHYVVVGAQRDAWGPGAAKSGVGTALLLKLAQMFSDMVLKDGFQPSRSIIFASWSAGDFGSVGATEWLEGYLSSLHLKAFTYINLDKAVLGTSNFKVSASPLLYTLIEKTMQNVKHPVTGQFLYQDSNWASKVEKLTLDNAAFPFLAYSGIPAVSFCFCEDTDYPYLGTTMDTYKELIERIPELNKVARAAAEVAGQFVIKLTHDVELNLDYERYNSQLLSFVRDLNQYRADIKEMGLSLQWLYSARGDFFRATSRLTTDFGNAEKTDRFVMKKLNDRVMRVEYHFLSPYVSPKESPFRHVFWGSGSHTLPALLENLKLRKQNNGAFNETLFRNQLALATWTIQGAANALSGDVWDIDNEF
T1 sequence (P02786 89-760 limits assumed): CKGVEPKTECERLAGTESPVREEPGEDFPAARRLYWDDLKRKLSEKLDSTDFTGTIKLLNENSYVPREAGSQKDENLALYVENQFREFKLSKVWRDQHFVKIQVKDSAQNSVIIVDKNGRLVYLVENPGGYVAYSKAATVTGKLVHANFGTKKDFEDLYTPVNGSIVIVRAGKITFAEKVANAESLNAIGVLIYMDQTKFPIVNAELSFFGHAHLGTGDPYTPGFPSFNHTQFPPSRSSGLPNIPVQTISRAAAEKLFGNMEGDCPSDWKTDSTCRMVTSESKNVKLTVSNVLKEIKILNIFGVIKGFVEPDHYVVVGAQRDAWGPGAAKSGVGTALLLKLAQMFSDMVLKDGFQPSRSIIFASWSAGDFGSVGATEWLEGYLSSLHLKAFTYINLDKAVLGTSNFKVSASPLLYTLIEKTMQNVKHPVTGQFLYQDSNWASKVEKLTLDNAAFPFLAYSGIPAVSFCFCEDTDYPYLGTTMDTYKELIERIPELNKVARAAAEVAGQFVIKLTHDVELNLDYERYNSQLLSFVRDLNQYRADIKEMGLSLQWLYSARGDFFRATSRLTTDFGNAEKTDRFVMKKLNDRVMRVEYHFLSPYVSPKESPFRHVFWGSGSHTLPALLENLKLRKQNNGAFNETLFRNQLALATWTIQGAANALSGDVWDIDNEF

| Kd [4] | Kd [5] | Binder | also measured |
| --- | --- | --- | --- |
|  |  | anti-human CD71 TF02-2001 activatable antibody (antibody, human IgG1, kappa) heavy: not shown light: QGQSGQGNLCTEHSFALDCRSYGGGSSGGSISSGLLSGRSDNHGGGSDIQMTQSPSSLSASVGDRVTITCSASSSVYYMYWFQQKPGKAPKLWIYSTSNLASGVPSRFSGSGSGTDYTLTISSMQPEDFATYYCQQRRNYPYTFGQGTKLEIKRTVAAPSVFIFPPSDEQLKSGTASVVCLLNNFYPREAKVQWKVDNALQSGNSQESVTEQDSKDSTYSLSSTLTLSKADYEKHKVYACEVTHQGLSSPVTKSFNRGEC | Kd [1]: 21.4 nM; ME (masking efficiency) [2]: 153 fold |
|  |  | CD71 TF02.13-2001-spdb-DM4 (antibody, human IgG1, kappa, spdb-DM4 conjugated to the antibody; chain and residues not stated) heavy: not shown light: QGQSGQGNLCTEHSAALDCRSYGGGSSGGSISSGLLSGRSDNHGGGSDIQMTQSPSSLSASVGDRVTITCSASSSVYYMYWFQQKPGKAPKLWIYSTSNLASGVPSRFSGSGSGTDYTLTISSMQPEDFATYYCQQRRNYPYTFGQGTKLEIKRTVAAPSVFIFPPSDEQLKSGTASVVCLLNNFYPREAKVQWKVDNALQSGNSQESVTEQDSKDSTYSLSSTLTLSKADYEKHKVYACEVTHQGLSSPVTKSFNRGEC | Kd [3]: ~200 nM |
| 57.1 nM | 4.27 nM | anti-human CD71 TF02.13-2011 activatable antibody (antibody, human IgG1, kappa) heavy: not shown light: QGQSGQGNLCTEHSAALDCRSYGGGSSGGSISSGLLSGRSDNPGGGSDIQMTQSPSSLSASVGDRVTITCSASSSVYYMYWFQQKPGKAPKLWIYSTSNLASGVPSRFSGSGSGTDYTLTISSMQPEDFATYYCQQRRNYPYTFGQGTKLEIKRTVAAPSVFIFPPSDEQLKSGTASVVCLLNNFYPREAKVQWKVDNALQSGNSQESVTEQDSKDSTYSLSSTLTLSKADYEKHKVYACEVTHQGLSSPVTKSFNRGEC |  |
| 70.3 nM |  | anti-human CD71 TF02.13-2007 activatable antibody (antibody, human IgG1, kappa) heavy: not shown light: QGQSGQGNLCTEHSAALDCRSYGGGSSGGSISSGLLSGRSDIHGGGSDIQMTQSPSSLSASVGDRVTITCSASSSVYYMYWFQQKPGKAPKLWIYSTSNLASGVPSRFSGSGSGTDYTLTISSMQPEDFATYYCQQRRNYPYTFGQGTKLEIKRTVAAPSVFIFPPSDEQLKSGTASVVCLLNNFYPREAKVQWKVDNALQSGNSQESVTEQDSKDSTYSLSSTLTLSKADYEKHKVYACEVTHQGLSSPVTKSFNRGEC |  |
| 90 nM | 15.1 nM | anti-human CD71 TF02.13-2008 activatable antibody (antibody, human IgG1, kappa) heavy: not shown light: QGQSGQGNLCTEHSAALDCRSYGGGSSGGSISSGLLSGRSDQHGGGSDIQMTQSPSSLSASVGDRVTITCSASSSVYYMYWFQQKPGKAPKLWIYSTSNLASGVPSRFSGSGSGTDYTLTISSMQPEDFATYYCQQRRNYPYTFGQGTKLEIKRTVAAPSVFIFPPSDEQLKSGTASVVCLLNNFYPREAKVQWKVDNALQSGNSQESVTEQDSKDSTYSLSSTLTLSKADYEKHKVYACEVTHQGLSSPVTKSFNRGEC |  |
| 70.3 nM | 3.25 nM | anti-human CD71 TF02.13-2013 activatable antibody (antibody, human IgG1, kappa) heavy: not shown light: QGQSGQGNLCTEHSAALDCRSYGGGSSGGSISSGLLSGRSANIGGGSDIQMTQSPSSLSASVGDRVTITCSASSSVYYMYWFQQKPGKAPKLWIYSTSNLASGVPSRFSGSGSGTDYTLTISSMQPEDFATYYCQQRRNYPYTFGQGTKLEIKRTVAAPSVFIFPPSDEQLKSGTASVVCLLNNFYPREAKVQWKVDNALQSGNSQESVTEQDSKDSTYSLSSTLTLSKADYEKHKVYACEVTHQGLSSPVTKSFNRGEC |  |
| 39.1 nM | 1.64 nM | anti-human CD71 TF02.13-2012 activatable antibody (antibody, human IgG1, kappa) heavy: not shown light: QGQSGQGNLCTEHSAALDCRSYGGGSSGGSISSGLLSGRSANPGGGSDIQMTQSPSSLSASVGDRVTITCSASSSVYYMYWFQQKPGKAPKLWIYSTSNLASGVPSRFSGSGSGTDYTLTISSMQPEDFATYYCQQRRNYPYTFGQGTKLEIKRTVAAPSVFIFPPSDEQLKSGTASVVCLLNNFYPREAKVQWKVDNALQSGNSQESVTEQDSKDSTYSLSSTLTLSKADYEKHKVYACEVTHQGLSSPVTKSFNRGEC |  |
|  |  | CD71 Ab21.12-PEG2-vc-MMAD (antibody, human IgG1, kappa, PEG2-vc-MMAD conjugated to the antibody; chain and residues not stated, antibody drug conjugate of Ab21.12) heavy: not shown light: DIQMTQSPSSLSASVGDRVTITCSASSSVYYMYWFQQKPGKAPKLWIYSTSNLASGVPSRFSGSGSGTDYTLTISSMQPEDFATYYCQQRRNYPYTFGQGTKLEIKRTVAAPSVFIFPPSDEQLKSGTASVVCLLNNFYPREAKVQWKVDNALQSGNSQESVTEQDSKDSTYSLSSTLTLSKADYEKHKVYACEVTHQGLSSPVTKSFNRGEC | Kd [6]: 1.47 nM |
|  |  | CD71 Ab 21.12-vc-MMAE (antibody, human IgG1, kappa, vc-MMAE conjugated to the antibody; chain and residues not stated, antibody drug conjugate of Ab21.12) heavy: not shown light: DIQMTQSPSSLSASVGDRVTITCSASSSVYYMYWFQQKPGKAPKLWIYSTSNLASGVPSRFSGSGSGTDYTLTISSMQPEDFATYYCQQRRNYPYTFGQGTKLEIKRTVAAPSVFIFPPSDEQLKSGTASVVCLLNNFYPREAKVQWKVDNALQSGNSQESVTEQDSKDSTYSLSSTLTLSKADYEKHKVYACEVTHQGLSSPVTKSFNRGEC | Kd [3]: 6.4 nM; Bmax (MFI) [7]: 1600 MFI; Kd [7]: 1.33 nM |
|  |  | CD71 Ab 21.12-spdb-DM4 (antibody, human IgG1, kappa, spdb-DM4 conjugated to the antibody; chain and residues not stated, antibody drug conjugate of Ab21.12) heavy: not shown light: DIQMTQSPSSLSASVGDRVTITCSASSSVYYMYWFQQKPGKAPKLWIYSTSNLASGVPSRFSGSGSGTDYTLTISSMQPEDFATYYCQQRRNYPYTFGQGTKLEIKRTVAAPSVFIFPPSDEQLKSGTASVVCLLNNFYPREAKVQWKVDNALQSGNSQESVTEQDSKDSTYSLSSTLTLSKADYEKHKVYACEVTHQGLSSPVTKSFNRGEC | Kd [6]: 1.24 nM |
| 86.7 nM | 2.21 nM | anti-human CD71 TF02.13-3007 activatable antibody (antibody, human IgG1, kappa) heavy: not shown light: QGQSGQGNLCTEHSAALDCRSYGGGSSGGSAVGLLAPPGGLSGRSDIHGGSDIQMTQSPSSLSASVGDRVTITCSASSSVYYMYWFQQKPGKAPKLWIYSTSNLASGVPSRFSGSGSGTDYTLTISSMQPEDFATYYCQQRRNYPYTFGQGTKLEIKRTVAAPSVFIFPPSDEQLKSGTASVVCLLNNFYPREAKVQWKVDNALQSGNSQESVTEQDSKDSTYSLSSTLTLSKADYEKHKVYACEVTHQGLSSPVTKSFNRGEC |  |
|  |  | CD71 TF02.13-3001-spdb-DM4 (antibody, human IgG1, kappa, spdb-DM4 conjugated to the antibody; chain and residues not stated) heavy: not shown light: QGQSGQGNLCTEHSAALDCRSYGGGSSGGSAVGLLAPPGGLSGRSDNHGGSDIQMTQSPSSLSASVGDRVTITCSASSSVYYMYWFQQKPGKAPKLWIYSTSNLASGVPSRFSGSGSGTDYTLTISSMQPEDFATYYCQQRRNYPYTFGQGTKLEIKRTVAAPSVFIFPPSDEQLKSGTASVVCLLNNFYPREAKVQWKVDNALQSGNSQESVTEQDSKDSTYSLSSTLTLSKADYEKHKVYACEVTHQGLSSPVTKSFNRGEC | Kd [3]: ~200 nM; Kd [6]: 46.9 nM |
|  |  | CD71 TF02.13-3001-vc-MMAE (antibody, human IgG1, kappa, vc-MMAE conjugated to the antibody; chain and residues not stated) heavy: not shown light: QGQSGQGNLCTEHSAALDCRSYGGGSSGGSAVGLLAPPGGLSGRSDNHGGSDIQMTQSPSSLSASVGDRVTITCSASSSVYYMYWFQQKPGKAPKLWIYSTSNLASGVPSRFSGSGSGTDYTLTISSMQPEDFATYYCQQRRNYPYTFGQGTKLEIKRTVAAPSVFIFPPSDEQLKSGTASVVCLLNNFYPREAKVQWKVDNALQSGNSQESVTEQDSKDSTYSLSSTLTLSKADYEKHKVYACEVTHQGLSSPVTKSFNRGEC | Bmax (MFI) [7]: 1850 MFI; Kd [7]: 53.8 nM |
|  |  | CD71 TF02.13-3001-PEG2-vc-MMAD (antibody, human IgG1, kappa, PEG2-vc-MMAD conjugated to the antibody; chain and residues not stated) heavy: not shown light: QGQSGQGNLCTEHSAALDCRSYGGGSSGGSAVGLLAPPGGLSGRSDNHGGSDIQMTQSPSSLSASVGDRVTITCSASSSVYYMYWFQQKPGKAPKLWIYSTSNLASGVPSRFSGSGSGTDYTLTISSMQPEDFATYYCQQRRNYPYTFGQGTKLEIKRTVAAPSVFIFPPSDEQLKSGTASVVCLLNNFYPREAKVQWKVDNALQSGNSQESVTEQDSKDSTYSLSSTLTLSKADYEKHKVYACEVTHQGLSSPVTKSFNRGEC | Kd [6]: 52.6 nM |
| 97.8 nM | 2.61 nM | anti-human CD71 TF02.13-3008 activatable antibody (antibody, human IgG1, kappa) heavy: not shown light: QGQSGQGNLCTEHSAALDCRSYGGGSSGGSAVGLLAPPGGLSGRSDQHGGSDIQMTQSPSSLSASVGDRVTITCSASSSVYYMYWFQQKPGKAPKLWIYSTSNLASGVPSRFSGSGSGTDYTLTISSMQPEDFATYYCQQRRNYPYTFGQGTKLEIKRTVAAPSVFIFPPSDEQLKSGTASVVCLLNNFYPREAKVQWKVDNALQSGNSQESVTEQDSKDSTYSLSSTLTLSKADYEKHKVYACEVTHQGLSSPVTKSFNRGEC |  |
| 67.4 nM | 0.778 nM | anti-human CD71 TF02.13-3011 activatable antibody (antibody, human IgG1, kappa) heavy: not shown light: QGQSGQGNLCTEHSAALDCRSYGGGSSGGSAVGLLAPPGGLSGRSDNPGGSDIQMTQSPSSLSASVGDRVTITCSASSSVYYMYWFQQKPGKAPKLWIYSTSNLASGVPSRFSGSGSGTDYTLTISSMQPEDFATYYCQQRRNYPYTFGQGTKLEIKRTVAAPSVFIFPPSDEQLKSGTASVVCLLNNFYPREAKVQWKVDNALQSGNSQESVTEQDSKDSTYSLSSTLTLSKADYEKHKVYACEVTHQGLSSPVTKSFNRGEC |  |
| 78.3 nM | 4.91 nM | anti-human CD71 TF02.13-3013 activatable antibody (antibody, human IgG1, without spacer 851) heavy: not shown VL: QGQSGQGNLCTEHSAALDCRSYGGGSSGGSAVGLLAPPGGLSGRSANIGGSDIQMTQSPSSLSASVGDRVTITCSASSSVYYMYWFQQKPGKAPKLWIYSTSNLASGVPSRFSGSGSGTDYTLTISSMQPEDFATYYCQQRRNYPYTFGQGTKLEIK |  |
